The source of these data is patent publication US9696316B2, “Conformationally dynamic peptides” (SYSTEM OF SYSTEMS ANALYTICS, INC., priority 2009, dated 2017).

Data set [1] addresses Aβ oligomer (Homo sapiens, UniProt P05067). Briefly: Aβ oligomer assay with FRET-labeled probes. The data set is classed as binding. The settings on record: FAM/EDANS labeled, water (FIG. 10 bottom panel B: increased β-sheet, FRET signal). An excerpt:
Alternatively, as illustrated in bottom panel B of FIG. 10, a peptide probe can be labeled at each terminus with members of a FRET pair (e.g. FAM and EDANS).

Data set [2] deals with T1, Aβ42 oligomer (Homo sapiens, UniProt P05067). Kind of data set: Aqueous Aβ oligomer assay, pyrene fluorescence. The data set is classed as binding. The settings on record: for reactivity with Aβ42 oligomers (transition from pyrene excimer fluorescence to pyrene self-fluorescence): aqueous assay. An excerpt: The conformation of peptide probe bound to the target protein can also be detected by measuring pyrene fluorescence, on the peptide alone and in combination with the target protein. […] The excimer fluorescence associated with the β-sheet conformation has a different wavelength than the monomer fluorescence associated with the alpha-helix conformation, and the excimer:monomer fluorescence ratio is 9:1. […] The addition of Aβ42 oligomer target protein results in a dose-dependent shift of the excimer:monomer fluorescence ratio to 20:1 at the highest Aβ42 oligomer concentration (0.3 μM). This change in excimer:monomer fluorescence ratio reflects a corresponding conformational change in the peptide, that results in increased β-sheet conformation, and decreased α helix conformation.
An Aβ oligomer assay may be conducted in an aqueous solvent, such as water. […] Upon introduction of Aβ oligomer, the fluorescence profile shifts to primarily self-fluorescence (monomeric) (see FIG. 11), which is associated with reduced β-sheet structure, or increased alpha helix structure.
As discussed above, Peptide 22 (SEQ ID NO: 2) undergoes a conformational change upon interaction with Aβ oligomer. FIG. 11 illustrates the fluorescence spectra for Peptide 22 labeled at each terminus with pyrene and incubated in aqueous conditions for several hours at room temperature in 10 mM Hepes (pH 7.0). […] (solid line=Time 0; dashed line=3 hours; dotted line=18 hours).
Peptide 22 (100 nM) is incubated in water for 15 hours at room temperature with equimolar concentrations ([…]) of several potential Aβ substrates: Aβ42 oligomer (type 1); Aβ42 oligomer (type 2); Aβ1-42 monomer; Aβ1-40 monomer; Aβ1-42 fiber; Aβ1-40 fiber; bovine serum albumin (control substrate); and carbonic anhydrase (control substrate).
With reference to FIG. 13A, Peptide 22 (70 nM) is incubated with […] synthetic Aβ42 oligomer at 25 C, and fluorescence emission spectra is recorded after 3 hours incubation. […] (solid line—no Aβ42 oligomer; dashed/dot line—30 nN Aβ42 oligomer; large dashed line—100 nN Aβ42 oligomer; small dashed line—300 nN Aβ42 oligomer)

Data set [3] in a line: CD analysis of peptide probe conformation under different pH and salt conditions. The data set is classed as physicochemical. The method, then: As discussed in Example 2, histidine and glutamic acid residue substitutions were introduced into Peptides 22, 38 and 45 (SEQ ID NOs: 2-4) so as to permit the formation salt bridges between those residues. CD analysis can be performed on such peptides under different pH and salt conditions to determine the conformation of the peptide under given conditions.
Peptide 38 (SEQ ID NO:3) labeled at each terminus with a pyrene moiety is used in this example. […] The addition of 500 mM NaCl greatly diminishes the alpha helix conformation in favor of a β-sheet conformation, at both pH levels. Thus, at pH 7, in the presence of 500 mM NaCl (large dashed line), the alpha helix content is 4%, while the fβ-sheet content is 40% (up from 10% without the salt). At pH 4, in the presence of 500 mM NaCl (dashed/dot line), the alpha helix content is 6%, while the β-sheet content is 52% (up from 4% without the salt). […] At greater salt concentrations, the salt bridge is destroyed, and the α helical conformation is no longer stabilized.

In data set [4] the target is T1, Aβ42 oligomer. Briefly: CD analysis of peptide probe with target protein. The data set is classed as binding. An excerpt: The conformation of the peptide probe bound to the target protein can be assessed by CD analysis. […] The peptide alone is highly alpha helical (36%). Upon mixing of Peptide 38 with the target protein, the peptide undergoes a conformation shift that results in increased β-sheet conformation, and decreased α helix conformation. That is, the secondary structure of Peptide 38 is altered such that the proportion of a helix is halved (18%), while the proportion of β-sheet structure is enhanced from 20% to 31%. […] Circular dichroism (CD) analysis is used to determine the secondary structure of Peptide 22, synthetic Aβ42 oligomer, and a mixture thereof. Samples are incubated in 10 mM sodium phosphate (pH 7.0) for 3 hours at room temperature before measuring CD. For each sample, the relative ellipticity is evaluated from 190-260 nm. […] Each data set represents the average of three separate spectral scans.

The nature of data set [5]: Additional work on stability of the β-sheet conformation of variants. Type of data set: physicochemical. The settings on record: relative to parent sequence.
Where [6] appears, read: mixed with Aβ42 oligomer (FIG. 8).

Ends that are not written are not given here. * marks the point of attachment. EDANS = O=S(=O)(O)c1cccc2c(NCCN*)cccc12; FAM = 5(6)carboxyfluorescein

T1 sequence (P05067 672-713 limits assumed): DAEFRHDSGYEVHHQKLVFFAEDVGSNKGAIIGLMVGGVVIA
Sequence of Aβ oligomer (P05067 672-713 limits assumed): as above

For the substance “(FAM)EAA KLVFFAEDEGSRKHAIEGLMEGE(EDANS) ({FAM}-EAAKLVFFAEDEGSRKHAIEGLMEGE(EDANS); not fully specified (C-terminus)) [AD 290, P59, with FAM and EDANS, additional Ala, and solubilizing E residue]”, in data set [1], the “FRET fluorescence behavior upon introduction of Aβ oligomer” value is reported as “fluorescence behavior consistent with this type of conformation change”.
Same read-out and setting: the result for “(FAM)EFR HDSGYEVHHQKLVFFAEDVGSNKGAIIGLME(EDANS) (EFRHDSGYEVHHQKLVFFAEDVGSNKGAIIGLME; not fully specified; FAM and EDANS labels) [AD292, Aβ residues 3-35, with FAM and EDANS and solubilizing E residue]” reads “fluorescence behavior consistent with this type of conformation change”; that for “(FAM)HHQ KLVFFAEDEGSRKHAIEGLMEGE(EDANS) ({FAM}-HHQKLVFFAEDEGSRKHAIEGLMEGE(EDANS); not fully specified (C-terminus)) [AD 291, P77, with FAM and EDANS and solubilizing E residue]”, “fluorescence behavior consistent with this type of conformation change”.
Same read-out and setting: next, “(FAM)KLVFF AEDVG SNKBA IIELM E(EDANS) [AD293]”: “fluorescence behavior consistent with this type of conformation change”.
As to “KAAA KLVFFAEDVGSNKHAIIELMK (KAAAKLVFFAEDVGSNKHAIIELMK) [Peptide 45, Salt bridge at G29H and G33E; Ala additions to increase alpha-helicity]”, in data set [2], the “reactivity with Aβ42 oligomers (transition from pyrene excimer fluorescence to pyrene self-fluorescence)” value (from here on “reactivity with Aβ42 oligomers”) is “react with Aβ42 oligomers”.
For “KLVFFAEDAAAAKHAIIELMK (KLVFFAEDAAAAKHAIIELMK) [Peptide 38, Salt bridge at G29H and G33E; Ala substitutions to increase alpha-helicity]”, the “alpha helix content (CD)” value in data set [3] (pH 4, 500 mM NaCl) amounted to 6%; in data set [3] (pH 4, no added salt), 52%; in data set [3] (pH 7, 500 mM NaCl), 4%; in data set [3] (pH 7, no added salt) it was 38%. The “β-sheet content (CD)” value in data set [3] (pH 4, 500 mM NaCl) is given as 52%; in data set [3] (pH 4, without the salt), 4%; in data set [3] (pH 7, 500 mM NaCl), 40%; in data set [3] (pH 7, without the salt), 10%. Moreover, the “reactivity with Aβ42 oligomers” value in data set [2] was “react with Aβ42 oligomers”. The “preferential binding by state of self-aggregation of Aβ protein” value in data set [2] (versus monomers, fibers and control proteins) is recorded as “preferentially binds to Aβ protein in the form of soluble Aβ oligomers”. Besides, the results for the “proportion of alpha helix (CD)” value in data set [4] (setting [6]) and in data set [4] (peptide alone (FIG. 8)) were 18% and 36%, respectively. Moreover, the “proportion of β-sheet structure (CD)” value in data set [4] (setting [6]) was found to be 31%; in data set [4] (peptide alone (FIG. 8)) it was 20%.
For the substance “KLVFFAEDVGDNKHADIELMK (KLVFFAEDVGDNKHADIELMK) [AD327, P22, with point mutation S26D, I31D]”, the “effect of the substitutions on the β-sheet conformation of the probe” value (“effect of the substitutions” below) in data set [5] was “destabilize the β-sheet conformation”.
For the substance “KLVFFAEDVGDNKHAIIELMK (KLVFFAEDVGDNKHAIIELMK) [AD325, P22, with point mutation 526D]”, in data set [5], the “effect of the substitutions” value is “destabilize the β-sheet conformation”.
Same read-out and setting: next, “KLVFFAEDVGSNKDADIELMK (KLVFFAEDVGSNKDADIELMK) [AD323, P22, with point mutations H29D and I31D]”: “destabilize the β-sheet conformation”; “KLVFFAEDVGSNKDAIIELMK (KLVFFAEDVGSNKDAIIELMK) [AD328, P22, with point mutation H29D]”: “destabilize the β-sheet conformation”; “KLVFFAEDVGSNKGAISGLMK (KLVFFAEDVGSNKGAISGLMK) [Peptide 132S, Wildtype, with I32S point mutation]”: “destabilize the β-sheet conformation”.
On to “KLVFFAEDVGSNKHADIELMK (KLVFFAEDVGSNKHADIELMK) [AD330, P22, with point mutation I31D]”, for which the “effect of the substitutions” value in data set [5] was “destabilize the β-sheet conformation”.
The same measure, in the same setting: next, “KLVFFAEDVGSNKHAIIEDMK (KLVFFAEDVGSNKHAIIEDMK) [AD329, P22, with point mutation L34D]”: “destabilize the β-sheet conformation”.
Turning to “KLVFFAEDVGSNKKAIIELMK (KLVFFAEDVGSNKKAIIELMK) [Peptide 22 variation 2, Salt bridge at G29K and G33E]”, in data set [2], the “reactivity with Aβ42 oligomers” value is reported as “react with Aβ42 oligomers”.
Regarding “KLVFFAEDVGSNKRAIIELMK (KLVFFAEDVGSNKRAIIELMK) [Peptide 22 variation 1, Salt bridge at G29R and G33E]”, the “reactivity with Aβ42 oligomers” value in data set [2] was “react with Aβ42 oligomers”.
As for “KLVSFAEDVGSNKHAIIELMK (KLVSFAEDVGSNKHAIIELMK) [GM6 variation 1, P22, with point mutation F19S]”, the “effect of the substitutions” value in data set [5] is “destabilize the β-sheet conformation”.
Same read-out and setting: next, “KLVSFAEDVGSNKHAIIEPMK (KLVSFAEDVGSNKHAIIEPMK) [GM6, P22, with point mutations F19S, L34P]”: “destabilize the β-sheet conformation”.
